Results from paper PMC8163358.

Biological target: gramicidin S synthetase A (GrsA) (UniProt P0C062)
Experiment: MST; 1 nM GrsA labelled with NT-647-NHS (RED-NHS kit), dilution series of TycB1(WT); NRPS buffer (50 mM HEPES, 100 mM NaCl, 10 mM MgCl2, 1 mM EDTA, pH 7.0) with 0.05% (v/v) Tween-20; triplicate; sigmoidal fit

Chain of UniProt P0C062 (P0C062 whole entry): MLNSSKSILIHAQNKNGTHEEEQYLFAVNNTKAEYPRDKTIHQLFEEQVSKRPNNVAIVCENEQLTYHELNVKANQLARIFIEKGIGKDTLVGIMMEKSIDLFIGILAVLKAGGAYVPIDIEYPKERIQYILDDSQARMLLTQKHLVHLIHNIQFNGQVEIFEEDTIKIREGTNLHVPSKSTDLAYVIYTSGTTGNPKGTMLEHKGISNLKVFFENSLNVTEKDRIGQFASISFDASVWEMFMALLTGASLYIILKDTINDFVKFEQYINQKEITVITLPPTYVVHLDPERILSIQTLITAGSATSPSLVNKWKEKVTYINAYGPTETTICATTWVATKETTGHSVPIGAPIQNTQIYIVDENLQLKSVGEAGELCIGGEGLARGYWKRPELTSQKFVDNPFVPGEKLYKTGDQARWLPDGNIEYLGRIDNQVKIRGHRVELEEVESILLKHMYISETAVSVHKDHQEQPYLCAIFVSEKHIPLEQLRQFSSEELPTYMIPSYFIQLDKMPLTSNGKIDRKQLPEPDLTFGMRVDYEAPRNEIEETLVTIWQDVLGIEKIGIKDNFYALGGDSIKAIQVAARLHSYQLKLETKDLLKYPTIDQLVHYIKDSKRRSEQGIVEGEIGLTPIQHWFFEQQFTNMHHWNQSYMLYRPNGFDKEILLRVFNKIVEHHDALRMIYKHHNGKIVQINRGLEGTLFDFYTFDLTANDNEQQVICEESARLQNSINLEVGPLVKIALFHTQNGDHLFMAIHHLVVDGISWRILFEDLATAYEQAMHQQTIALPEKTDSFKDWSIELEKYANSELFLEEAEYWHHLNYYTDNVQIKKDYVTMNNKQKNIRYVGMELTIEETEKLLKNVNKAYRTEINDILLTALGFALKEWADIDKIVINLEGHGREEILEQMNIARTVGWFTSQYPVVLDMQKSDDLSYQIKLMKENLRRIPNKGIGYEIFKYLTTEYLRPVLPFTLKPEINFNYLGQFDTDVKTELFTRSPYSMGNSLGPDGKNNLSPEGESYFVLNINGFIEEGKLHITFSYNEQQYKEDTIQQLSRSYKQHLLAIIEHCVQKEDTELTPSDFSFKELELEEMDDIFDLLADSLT

TycB1 (wildtype) (from UniProt O30408 1-3587) (domain or fragment)
Kd: 5 µM
